Results reported in the supplement of paper PMC5998384.

Key:
HeLa Kyoto [1] = test: melting temperature (median over replicates), in situ; higher = more thermally stable
HeLa Kyoto [2] = test: solubility in G1/S (NP-40 vs SDS abundance) (log2 ratio); higher = more soluble; conditions: cell cycle stage: G1/S
HeLa Kyoto [3] = test: solubility change mitosis vs G1/S (difference of NP-40 vs SDS log2 ratios) (log2 ratio difference); higher = more soluble in mitosis
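Throughout, for melting temperature (median over replicates), in situ: HeLa Kyoto cells synchronized by double thymidine or nocodazole block, proteins quantified by TMT10plex mass spectrometry, three independent biological replicates.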
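Throughout, for solubility change mitosis vs G1/S (difference of NP-40 vs SDS log2 ratios): synchronized HeLa Kyoto cells (double thymidine block for G1/S, nocodazole release for mitosis), protein amounts in NP-40 versus SDS lysates quantified by mass spectrometry, three biological replicates.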
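Throughout, for solubility in G1/S (NP-40 vs SDS abundance): HeLa Kyoto cells arrested at G1/S by double thymidine block, proteins quantified by TMT10plex mass spectrometry in mild NP-40 versus SDS extracts, three biological replicates.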

| Sequence | melting temperature (HeLa Kyoto [1]; cell cycle stage: G1/S) | melting temperature (HeLa Kyoto [1]; cell cycle stage: mitosis) | solubility in G1/S (log2) (HeLa Kyoto [2]) | solubility change mitosis (log2) (HeLa Kyoto [3]) |
| --- | --- | --- | --- | --- |
| MSSSSSSPRETYEEDREYESQAKRLKTEEGEIDYSAEEGENRREATPRGGGDGGGGGRSFSQPEAGGSHHKVSVSPVVHVRGLCESVVEADLVEALEKFGTICYVMMMPFKRQALVEFENIDSAKECVTFAADEPVYIAGQQAFFNYSTSKRITRPGNTDDPSGGNKVLLLSIQNPLYPITVDVLYTVCNPVGKVQRIVIFKRNGIQAMVEFESVLCAQKAKAALNGADIYAGCCTLKIEYARPTRLNVIRNDNDSWDYTKPYLGRRDRGKGRQRQAILGEHPSSFRHDGYGSHGPLLPLPSRYRMGSRDTPELVAYPLPQASSSYMHGGNPSGSVVMVSGLHQLKMNCSRVFNLFCLYGNIEKVKFMKTIPGTALVEMGDEYAVERAVTHLNNVKLFGKRLNVCVSKQHSVVPSQIFELEDGTSSYKDFAMSKNNRFTSAGQASKNIIQPPSCVLHYYNVPLCVTEETFTKLCNDHEVLTFIKYKVFDAKPSAKTLSGLLEWECKTDAVEALTALNHYQIRVPNGSNPYTLKLCFSTSSHL [HNRPLL] | 47.6 °C | 49.7 °C | -0.0931 | -0.0114 |
| MSVAGLKKQFHKATQKVSEKVGGAEGTKLDDDFKEMERKVDVTSRAVMEIMTKTIEYLQPNPASRAKLSMINTMSKIRGQEKGPGYPQAEALLAEAMLKFGRELGDDCNFGPALGEVGEAMRELSEVKDSLDIEVKQNFIDPLQNLHDKDLREIQHHLKKLEGRRLDFDYKKKRQGKIPDEELRQALEKFDESKEIAESSMFNLLEMDIEQVSQLSALVQAQLEYHKQAVQILQQVTVRLEERIRQASSQPRREYQPKPRMSLEFPTGDSTQPNGGLSHTGTPKPSGVQMDQPCCRALYDFEPENEGELGFKEGDIITLTNQIDENWYEGMLHGHSGFFPINYVEILVALPH [SH3GL2] | 48.7 °C | 49.2 °C | 0.586 | -0.159 |
| MSVHYTLNLRVFWPLVTGLCTALVCLYHVLRGSGGARAEPADGVDGGFPLLKVAVLLLLSYVLLRCRHAVRQRFLPGSPRLEGHAAFSSRHFREPGLSILLESYYEHEVRLSPHVLGHSKAHVSRIVGELVRAGRARGSPGLIPGGALALAFRGDFIQVGSAYEQHKIRRPDSFDVLVPLRLPPLVALEPRSLGEEPALAPAFRGCFLCALKAPPSPSGASGGHWLRDCKPFADAFCVDVRGRRHLSATLVLRWFQSHLQRSLATVRYSLEGRCRVTLTPGGLEQPPTLHILPCRTDYGCCRLSMAVRLIPAVHLGDGVFLVAPPPPPLPSAPLLELPEGLRAEALWGVNTARQEQKLLSWLQERAAPGACYLKCLQLLKALRDLGARGLDSAAATQWGRILSSYVLKTVLLAVLLRKGAPGQGWDEEHLGRCLEELVQFLRDCLLRRHTLFHCVLGPGGAAAEVGPLPKALREAAPVDLLAAFDGHARELAAARLLSTWQRLPQLLRAYGGPRYLARCPPPRSQRTQGFLEGEP [ITPRIPL2] | 53.8 °C | 55.4 °C | -0.164 | 0.00884 |
| MSVQSSSGSLEGPPSWSQLSTSPTPGSAAAARSLLNHTPPSGRPREGAMDELHSLDPRRQELLEARFTGVASGSTGSTGSCSVGAKASTNNESSNHSFGSLGSLSDKESETPEKKQSESSRGRKRKAENQNESSQGKSIGGRGHKISDYFEYQGGNGSSPVRGIPPAIRSPQNSHSHSTPSSSVRPNSPSPTALAFGDHPIVQPKQLSFKIIQTDLTMLKLAALESNKIQDLEKKEGRIDDLLRANCDLRRQIDEQQKLLEKYKERLNKCISMSKKLLIEKSTQEKLSSREKSMQDRLRLGHFTTVRHGASFTEQWTDGFAFQNLVKQQEWVNQQREDIERQRKLLAKRKPPTANNSQAPSTNSEPKQRKNKAVNGAENDPFVRPNLPQLLTLAEYHEQEEIFKLRLGHLKKEEAEIQAELERLERVRNLHIRELKRINNEDNSQFKDHPTLNERYLLLHLLGRGGFSEVYKAFDLYEQRYAAVKIHQLNKSWRDEKKENYHKHACREYRIHKELDHPRIVKLYDYFSLDTDTFCTVLEYCEGNDLDFYLKQHKLMSEKEARSIVMQIVNALRYLNEIKPPIIHYDLKPGNILLVDGTACGEIKITDFGLSKIMDDDSYGVDGMDLTSQGAGTYWYLPPECFVVGKEPPKISNKVDVWSVGVIFFQCLYGRKPFGHNQSQQDILQENTILKATEVQFPVKPVVSSEAKAFIRRCLAYRKEDRFDVHQLANDPYLLPHMRRSNSSGNLHMAGLTASPTPPSSSIITY [TLK1] | 50.1 °C | 53.3 °C | 0.061 | -0.0453 |
| MTGKSVKDVDRYQAVLANLLLEEDNKFCADCQSKGPRWASWNIGVFICIRCAGIHRNLGVHISRVKSVNLDQWTQEQIQCMQEMGNGKANRLYEAYLPETFRRPQIDPAVEGFIRDKYEKKKYMDRSLDINAFRKEKDDKWKRGSEPVPEKKLEPVVFEKVKMPQKKEDPQLPRKSSPKSTAPVMDLLGLDAPVACSIANSKTSNTLEKDLDLLASVPSPSSSGSRKVVGSMPTAGSAGSVPENLNLFPEPGSKSEEIGKKQLSKDSILSLYGSQTPQMPTQAMFMAPAQMAYPTAYPSFPGVTPPNSIMGSMMPPPVGMVAQPGASGMVAPMAMPAGYMGGMQASMMGVPNGMMTTQQAGYMAGMAAMPQTVYGVQPAQQLQWNLTQMTQQMAGMNFYGANGMMNYGQSMSGGNGQAANQTLSPQMWK [SMAP2] | 48.3 °C | 49.6 °C | 0.111 | -0.0647 |
| MTLIEGVGDEVTVLFSVLACLLVLALAWVSTHTAEGGDPLPQPSGTPTPSQPSAAMAATDSMRGEAPGAETPSLRHRGQAAQPEPSTGFTATPPAPDSPQEPLVLRLKFLNDSEQVARAWPHDTIGSLKRTQFPGREQQVRLIYQGQLLGDDTQTLGSLHLPPNCVLHCHVSTRVGPPNPPCPPGSEPGPSGLEIGSLLLPLLLLLLLLLWYCQIQYRPFFPLTATLGLAGFTLLLSLLAFAMYRP [TMUB1] | 51.6 °C | 52.5 °C | 0.566 | 0.143 |
| MTNEEPLPKKVRLSETDFKVMARDELILRWKQYEAYVQALEGKYTDLNSNDVTGLRESEEKLKQQQQESARRENILVMRLATKEQEMQECTTQIQYLKQVQQPSVAQLRSTMVDPAINLFFLKMKGELEQTKDKLEQAQNELSAWKFTPDSQTGKKLMAKCRMLIQENQELGRQLSQGRIAQLEAELALQKKYSEELKSSQDELNDFIIQLDEEVEGMQSTILVLQQQLKETRQQLAQYQQQQSQASAPSTSRTTASEPVEQSEATSKDCSRLTNGPSNGSSSRQRTSGSGFHREGNTTEDDFPSSPGNGNKSSNSSEERTGRGGSGYVNQLSAGYESVDSPTGSENSLTHQSNDTDSSHDPQEEKAVSGKGNRTVGSRHVQNGLDSSVNVQGSVL [WTAP] | 48.9 °C | 50.3 °C | -0.0275 | 0.772 |
| MTRGNQRELARQKNMKKQSDSVKGKRRDDGLSAAARKQRDSEIMQQKQKKANEKKEEPK [SERF2] | 57.5 °C | – | 0.752 | 0.151 |
| MTSTGQDSTTTRQRRSRQNPQSPPQDSSVTSKRNIKKGAVPRSIPNLAEVKKKGKMKKLGQAMEEDLIVGLQGMDLNLEAEALAGTGLVLDEQLNEFHCLWDDSFPEGPERLHAIKEQLIQEGLLDRCVSFQARFAEKEELMLVHSLEYIDLMETTQYMNEGELRVLADTYDSVYLHPNSYSCACLASGSVLRLVDAVLGAEIRNGMAIIRPPGHHAQHSLMDGYCMFNHVAVAARYAQQKHRIRRVLIVDWDVHHGQGTQFTFDQDPSVLYFSIHRYEQGRFWPHLKASNWSTTGFGQGQGYTINVPWNQVGMRDADYIAAFLHVLLPVALEFQPQLVLVAAGFDALQGDPKGEMAATPAGFAQLTHLLMGLAGGKLILSLEGGYNLRALAEGVSASLHTLLGDPCPMLESPGAPCRSAQASVSCALEALEPFWEVLVRSTETVERDNMEEDNVEESEEEGPWEPPVLPILTWPVLQSRTGLVYDQNMMNHCNLWDSHHPEVPQRILRIMCRLEELGLAGRCLTLTPRPATEAELLTCHSAEYVGHLRATEKMKTRELHRESSNFDSIYICPSTFACAQLATGAACRLVEAVLSGEVLNGAAVVRPPGHHAEQDAACGFCFFNSVAVAARHAQTISGHALRILIVDWDVHHGNGTQHMFEDDPSVLYVSLHRYDHGTFFPMGDEGASSQIGRAAGTGFTVNVAWNGPRMGDADYLAAWHRLVLPIAYEFNPELVLVSAGFDAARGDPLGGCQVSPEGYAHLTHLLMGLASGRIILILEGGYNLTSISESMAACTRSLLGDPPPLLTLPRPPLSGALASITETIQVHRRYWRSLRVMKVEDREGPSSSKLVTKKAPQPAKPRLAERMTTREKKVLEAGMGKVTSASFGEESTPGQTNSETAVVALTQDQPSEAATGGATLAQTISEAAIGGAMLGQTTSEEAVGGATPDQTTSEETVGGAILDQTTSEDAVGGATLGQTTSEEAVGGATLAQTTSEAAMEGATLDQTTSEEAPGGTELIQTPLASSTDHQTPPTSPVQGTTPQISPSTLIGSLRTLELGSESQGASESQAPGEENLLGEAAGGQDMADSMLMQGSRGLTDQAIFYAVTPLPWCPHLVAVCPIPAAGLDVTQPCGDCGTIQENWVCLSCYQVYCGRYINGHMLQHHGNSGHPLVLSYIDLSAWCYYCQAYVHHQALLDVKNIAHQNKFGEDMPHPH [HDAC6] | 50.5 °C | 52 °C | -0.0107 | -0.0591 |
| MTTSSIRRQMKNIVNNYSEAEIKVREATSNDPWGPSSSLMTEIADLTYNVVAFSEIMSMVWKRLNDHGKNWRHVYKALTLLDYLIKTGSERVAQQCRENIFAIQTLKDFQYIDRDGKDQGINVREKSKQLVALLKDEERLKAERAQALKTKERMAQVATGMGSNQITFGRGSSQPNLSTSHSEQEYGKAGGSPASYHGSPEASLCPQHRTGAPLGQSEELQPLSQRHPFLPHLGLASRPNGDWSQPCLTCDRAARATSPRVSSELEQARPQTSGEEELQLQLALAMSREVAEQEERLRRGDDLRLQMALEESRRDTVKIPKKKEHGSLPQQTTLLDLMDALPSSGPAAQKAEPWGPSASTNQTNPWGGPAAPASTSDPWPSFGTKPAASIDPWGVPTGATVQSVPKNSDPWAASQQPASSAGKRASDAWGAVSTTKPVSVSGSFELFSNLNGTIKDDFSEFDNLRTSKKTAESVTSLPSQNNGTTSPDPFESQPLTVASSKPSSARKTPESFLGPNAALVNLDSLVTRPAPPAQSLNPFLAPGAPATSAPVNPFQVNQPQPLTLNQLRGSPVLGTSTSFGPGPGVESMAVASMTSAAPQPALGATGSSLTPLGPAMMNMVGSVGIPPSAAQATGTTNPFLL [EPN2] | 54.9 °C | 54.6 °C | 0.656 | -0.0178 |
| MVAYWRQAGLSYIRYSQICAKAVRDALKTEFKANAEKTSGSNVKIVKVKKE [ATP5E] | 53.2 °C | 51.8 °C | -0.106 | 0.368 |
| MVMYARKQQRLSDGCHDRRGDSQPYQALKYSSKSHPSSGDHRHEKMRDAGDPSPPNKMLRRSDSPENKYSDSTGHSKAKNVHTHRVRERDGGTSYSPQENSHNHSALHSSNSHSSNPSNNPSKTSDAPYDSADDWSEHISSSGKKYYYNCRTEVSQWEKPKEWLEREQRQKEANKMAVNSFPKDRDYRREVMQATATSGFASGMEDKHSSDASSLLPQNILSQTSRHNDRDYRLPRAETHSSSTPVQHPIKPVVHPTATPSTVPSSPFTLQSDHQPKKSFDANGASTLSKLPTPTSSVPAQKTERKESTSGDKPVSHSCTTPSTSSASGLNPTSAPPTSASAVPVSPVPQSPIPPLLQDPNLLRQLLPALQATLQLNNSNVDISKINEVLTAAVTQASLQSIIHKFLTAGPSAFNITSLISQAAQLSTQAQPSNQSPMSLTSDASSPRSYVSPRISTPQTNTVPIKPLISTPPVSSQPKVSTPVVKQGPVSQSATQQPVTADKQQGHEPVSPRSLQRSSSQRSPSPGPNHTSNSSNASNATVVPQNSSARSTCSLTPALAAHFSENLIKHVQGWPADHAEKQASRLREEAHNMGTIHMSEICTELKNLRSLVRVCEIQATLREQRILFLRQQIKELEKLKNQNSFMV [WAC] | 46.5 °C | 49.9 °C | 0.525 | 0.139 |
